Measurements as given in patent US7205275 (dated 2007).
Where no end group is shown, it is not given here. [ ]: non-standard residue; d: D form. Fc = immunoglobulin Fc domain fused to the peptide (peptibody)

B2: human Ang-2 (protein)
chain: YNNFRKSMDSIGKKQYQVQHGSCSYTFLLPEMDNCRSSSSPYVSNAVQRDAPLEYDDSVQRLQVLENIMENNTQWLMKLENYIQDNMKKEMVEIQQNAVQNQTAVMIEIGTNLLNQTAEQTRKLTDVEAQVLNQTTRLELQLLEHSLSTNKLEKQILDQTSEINKLQDKNSFLEKKVLAMEDKHIIQLQSIKEEKDQLQVLVSKQNSIIEELEKKIVTATVNNSVLQKQQHDLMETVNNLLTMMSTSNSAKDPTVAKEEQISFRDCAEVFKSGHTTNGIYTLTFPNSTEEIKAYCDMEAGGGGWTIIQRREDGSVDFQRTWKEYKVGFGNPSGEYWLGNEFVSQLTNQQRYVLKIHLKDWEGNEAYSLYEHFYLSSEELNYRIHLKGLTGTAGKISSISQPGNDFSTKDGDNDKCICKCSQMLTGGWWFDACGPSNLNGMYYPQRQNTNKFNGIKWYYWKGSGYSLKATTMMIRPADF

Key:
mouse Ang-2 [1] = biological target: T1, mouse Ang-2 (mouse, UniProt O35608); assay: ELISA
T1 chain: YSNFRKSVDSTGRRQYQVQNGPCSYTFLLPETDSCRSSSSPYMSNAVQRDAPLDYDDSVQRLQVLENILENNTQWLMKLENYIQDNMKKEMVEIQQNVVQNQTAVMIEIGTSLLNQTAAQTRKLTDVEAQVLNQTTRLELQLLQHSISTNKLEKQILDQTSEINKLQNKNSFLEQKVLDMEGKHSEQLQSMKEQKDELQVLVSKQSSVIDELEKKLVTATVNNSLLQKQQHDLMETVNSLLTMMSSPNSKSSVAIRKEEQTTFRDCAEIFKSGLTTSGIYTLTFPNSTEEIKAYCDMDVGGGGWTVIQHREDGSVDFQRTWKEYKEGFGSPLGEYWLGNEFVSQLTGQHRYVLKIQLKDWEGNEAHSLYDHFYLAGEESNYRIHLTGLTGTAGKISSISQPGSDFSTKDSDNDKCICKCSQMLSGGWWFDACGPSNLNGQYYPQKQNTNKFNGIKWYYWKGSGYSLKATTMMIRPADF

human Ang-1 [2] = biological target: T2, human Ang-1 (human, UniProt Q15389); assay: ELISA
T2 chain: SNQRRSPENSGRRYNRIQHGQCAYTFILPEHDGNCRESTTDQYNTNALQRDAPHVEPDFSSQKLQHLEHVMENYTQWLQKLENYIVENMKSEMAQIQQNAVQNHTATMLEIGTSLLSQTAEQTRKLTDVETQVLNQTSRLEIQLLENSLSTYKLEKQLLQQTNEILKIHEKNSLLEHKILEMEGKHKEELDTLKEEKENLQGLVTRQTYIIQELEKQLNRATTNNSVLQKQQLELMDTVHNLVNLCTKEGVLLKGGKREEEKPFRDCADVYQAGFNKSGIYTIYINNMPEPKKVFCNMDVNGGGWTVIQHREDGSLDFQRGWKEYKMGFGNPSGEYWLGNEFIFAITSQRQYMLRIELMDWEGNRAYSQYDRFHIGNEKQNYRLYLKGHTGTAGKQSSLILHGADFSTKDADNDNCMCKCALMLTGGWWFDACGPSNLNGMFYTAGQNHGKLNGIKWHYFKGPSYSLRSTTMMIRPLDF

human Ang-2 [3] = biological target: B2; assay: SPR
human Ang-1 [4] = biological target: T2, human Ang-1; assay: competition ELISA vs Tie-2
mouse Ang-2 [5] = biological target: T1, mouse Ang-2; assay: SPR
human Ang-2 [6] = biological target: B2; assay: competition ELISA vs Tie-2
human Ang-2 [7] = biological target: B2; assay: ELISA
mouse Ang-2 [8] = biological target: T1, mouse Ang-2; assay: competition ELISA vs Tie-2
[9] = biological target: Negative Control Peptibody 4883; assay: ELISA

B1: Con4 (N) (peptide)
chain: MGAQQEECEWDPWTCEHMLEGGGGG[Fc]
modifications: not fully specified (bridges); printed as MGAQQEECEWDPWTCEHMLEGGGGG-Fc; cysteine pairing not given here; also: Fc fusion domain at position 26
EC50 (mouse Ang-2 [1]): 0.07 nM | binding result (human Ang-1 [2]): no binding | Kd (human Ang-2 [3]): 0.67 nM | IC50 (human Ang-1 [4]): > 1000 nM | Kd (mouse Ang-2 [5]): 0.6 nM | IC50 (human Ang-2 [6]): 0.85 nM | EC50 (human Ang-2 [7]): 0.03 nM | IC50 (mouse Ang-2 [8]): 0.72 nM

B2
binding result [9]: no binding
